Molecular target: recombinant full-length mammalian Tpr (6xHis-Tpr) (not stated (mammalian)) (UniProt P12270)
Test: ELISA; solid phase binding assay: Maxisorp microtiter plates coated with 25 ng of Tpr or C-Tpr; increasing concentrations of the soluble protein; bound protein detected with primary antibodies and horseradish peroxidase-conjugated secondary antibodies (TMB); apparent Kd from B = Bmax x Y/(Kd + Y); CRM1, NES and RanGTP at equimolar concentrations

Chain of recombinant full-length mammalian Tpr (6xHis-Tpr) (not stated (mammalian)) (P12270 whole entry): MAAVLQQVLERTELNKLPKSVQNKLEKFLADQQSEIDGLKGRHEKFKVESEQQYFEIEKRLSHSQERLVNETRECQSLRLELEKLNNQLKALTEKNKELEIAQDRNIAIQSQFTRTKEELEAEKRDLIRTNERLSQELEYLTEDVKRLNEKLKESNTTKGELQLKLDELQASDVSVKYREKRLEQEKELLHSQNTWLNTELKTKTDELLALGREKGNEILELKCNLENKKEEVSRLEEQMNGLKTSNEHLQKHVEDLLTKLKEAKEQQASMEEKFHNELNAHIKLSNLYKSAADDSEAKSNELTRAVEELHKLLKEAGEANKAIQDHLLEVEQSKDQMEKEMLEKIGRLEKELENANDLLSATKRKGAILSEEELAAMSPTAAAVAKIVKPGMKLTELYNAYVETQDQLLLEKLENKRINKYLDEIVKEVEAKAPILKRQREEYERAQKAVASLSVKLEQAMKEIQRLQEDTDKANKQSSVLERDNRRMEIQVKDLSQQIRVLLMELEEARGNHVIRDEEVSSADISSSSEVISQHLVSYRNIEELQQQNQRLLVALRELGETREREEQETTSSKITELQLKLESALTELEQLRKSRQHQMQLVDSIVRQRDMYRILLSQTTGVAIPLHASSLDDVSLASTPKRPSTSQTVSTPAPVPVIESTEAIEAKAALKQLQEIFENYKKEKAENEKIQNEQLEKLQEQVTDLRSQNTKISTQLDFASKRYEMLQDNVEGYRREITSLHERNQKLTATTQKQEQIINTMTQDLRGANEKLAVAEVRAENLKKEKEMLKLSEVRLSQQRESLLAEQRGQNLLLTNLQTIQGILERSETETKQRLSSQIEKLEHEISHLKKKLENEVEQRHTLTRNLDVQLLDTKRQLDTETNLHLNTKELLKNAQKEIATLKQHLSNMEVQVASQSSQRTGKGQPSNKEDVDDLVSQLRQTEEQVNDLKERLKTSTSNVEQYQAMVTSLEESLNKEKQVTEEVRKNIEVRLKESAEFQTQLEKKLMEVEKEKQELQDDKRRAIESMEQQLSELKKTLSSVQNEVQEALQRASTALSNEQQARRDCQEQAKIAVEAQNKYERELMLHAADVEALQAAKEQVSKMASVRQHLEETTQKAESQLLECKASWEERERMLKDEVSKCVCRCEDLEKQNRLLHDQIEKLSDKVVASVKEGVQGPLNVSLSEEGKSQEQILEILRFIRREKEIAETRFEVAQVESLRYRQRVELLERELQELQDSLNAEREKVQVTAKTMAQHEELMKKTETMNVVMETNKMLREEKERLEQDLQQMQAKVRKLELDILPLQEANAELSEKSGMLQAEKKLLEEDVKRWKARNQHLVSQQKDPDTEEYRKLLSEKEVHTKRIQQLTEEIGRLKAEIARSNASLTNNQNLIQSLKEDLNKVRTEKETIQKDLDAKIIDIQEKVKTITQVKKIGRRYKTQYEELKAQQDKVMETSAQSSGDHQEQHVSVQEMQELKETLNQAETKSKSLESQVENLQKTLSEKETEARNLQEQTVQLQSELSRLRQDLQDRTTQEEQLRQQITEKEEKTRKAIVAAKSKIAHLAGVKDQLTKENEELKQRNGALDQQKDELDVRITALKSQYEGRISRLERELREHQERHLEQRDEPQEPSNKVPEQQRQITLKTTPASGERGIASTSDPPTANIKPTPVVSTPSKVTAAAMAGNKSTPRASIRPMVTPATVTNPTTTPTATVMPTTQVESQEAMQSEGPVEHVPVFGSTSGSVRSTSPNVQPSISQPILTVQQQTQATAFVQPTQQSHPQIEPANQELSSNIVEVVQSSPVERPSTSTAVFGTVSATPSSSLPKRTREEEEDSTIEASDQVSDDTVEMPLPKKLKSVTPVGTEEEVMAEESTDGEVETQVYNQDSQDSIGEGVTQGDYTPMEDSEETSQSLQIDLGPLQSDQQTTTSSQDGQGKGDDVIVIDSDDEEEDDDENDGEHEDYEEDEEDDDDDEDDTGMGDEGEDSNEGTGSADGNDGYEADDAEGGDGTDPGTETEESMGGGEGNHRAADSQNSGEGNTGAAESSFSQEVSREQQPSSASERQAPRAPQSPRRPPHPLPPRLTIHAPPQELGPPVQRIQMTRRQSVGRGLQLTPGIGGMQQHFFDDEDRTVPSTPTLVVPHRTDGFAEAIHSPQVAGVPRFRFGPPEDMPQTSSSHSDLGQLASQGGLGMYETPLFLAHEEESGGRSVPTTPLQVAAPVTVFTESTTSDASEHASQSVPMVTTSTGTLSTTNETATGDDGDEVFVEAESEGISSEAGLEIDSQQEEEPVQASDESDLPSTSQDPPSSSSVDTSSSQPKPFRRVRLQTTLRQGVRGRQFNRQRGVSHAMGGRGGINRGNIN

His-importin α (from UniProt P52292 1-529) (natural protein)
Kd: 21.5 nM

Source: article PMC2770460
